From US20260151494A1 (ARO BIOTHERAPEUTICS, published 2026)
Read-outs that look alike come from different tables or passages of the source.

What was measured:
[1] = target: T1, apical domain of cynomolgus CD71 (cynomolgus, UniProt A0A2K5X958 189-383); test: primary ELISA, ratio of signal to HSA control
T1 construct: domain: apical domain; also called Cyno apical domain

[2] = target: T2, human CD71 extracellular domain (human, UniProt P02786 89-760); test: primary ELISA, ratio of signal to HSA control
T2 construct: also called hCD71; human CD71-ECD
T2 sequence (P02786 89-760): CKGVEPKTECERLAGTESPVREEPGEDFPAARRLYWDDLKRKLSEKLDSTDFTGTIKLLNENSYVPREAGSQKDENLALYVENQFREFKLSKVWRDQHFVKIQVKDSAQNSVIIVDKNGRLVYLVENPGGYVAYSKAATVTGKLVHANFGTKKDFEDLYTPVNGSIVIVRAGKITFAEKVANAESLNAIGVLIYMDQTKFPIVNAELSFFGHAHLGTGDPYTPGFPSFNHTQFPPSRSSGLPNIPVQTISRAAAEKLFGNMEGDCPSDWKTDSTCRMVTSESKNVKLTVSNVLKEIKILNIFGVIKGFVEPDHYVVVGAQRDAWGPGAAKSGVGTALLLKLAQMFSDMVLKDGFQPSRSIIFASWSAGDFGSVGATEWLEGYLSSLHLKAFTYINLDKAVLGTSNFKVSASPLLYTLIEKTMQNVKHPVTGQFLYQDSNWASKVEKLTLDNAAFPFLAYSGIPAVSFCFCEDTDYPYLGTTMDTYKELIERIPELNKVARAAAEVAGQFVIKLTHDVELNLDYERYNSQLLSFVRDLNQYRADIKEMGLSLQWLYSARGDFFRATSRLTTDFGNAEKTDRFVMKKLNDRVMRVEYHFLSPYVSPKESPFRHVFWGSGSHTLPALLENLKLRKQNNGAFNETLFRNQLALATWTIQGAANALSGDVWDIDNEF

[3] = target: T1, apical domain of cynomolgus CD71; test: primary ELISA, luminescence
[4] = target: T2, human CD71 extracellular domain; test: primary ELISA, luminescence
[5] = target: T3, human CD71 on cells (SKBR3; SW620-rLuc-KRAS) (human, UniProt P02786 1-760); test: cell-based or functional assay
T3 sequence (P02786 whole entry): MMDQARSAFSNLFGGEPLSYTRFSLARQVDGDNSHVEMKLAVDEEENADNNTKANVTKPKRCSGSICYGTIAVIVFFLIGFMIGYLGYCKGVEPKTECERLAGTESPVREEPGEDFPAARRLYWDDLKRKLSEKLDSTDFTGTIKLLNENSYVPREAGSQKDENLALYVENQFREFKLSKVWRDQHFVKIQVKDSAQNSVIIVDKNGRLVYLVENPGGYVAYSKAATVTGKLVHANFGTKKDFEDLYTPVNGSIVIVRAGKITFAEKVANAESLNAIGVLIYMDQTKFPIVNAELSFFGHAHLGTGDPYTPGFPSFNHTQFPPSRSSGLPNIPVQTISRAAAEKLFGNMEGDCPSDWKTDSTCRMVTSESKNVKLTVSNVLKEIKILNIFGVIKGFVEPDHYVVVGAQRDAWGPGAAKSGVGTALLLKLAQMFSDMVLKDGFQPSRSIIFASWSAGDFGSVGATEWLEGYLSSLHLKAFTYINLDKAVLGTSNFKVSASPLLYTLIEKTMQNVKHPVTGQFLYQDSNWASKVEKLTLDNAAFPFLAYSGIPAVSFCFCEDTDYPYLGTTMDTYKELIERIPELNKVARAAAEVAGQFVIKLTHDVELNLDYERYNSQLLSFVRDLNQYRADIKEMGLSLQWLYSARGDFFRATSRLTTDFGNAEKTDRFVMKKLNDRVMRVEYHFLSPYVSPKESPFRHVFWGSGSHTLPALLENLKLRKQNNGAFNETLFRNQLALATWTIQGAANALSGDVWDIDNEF

[6] = target: T3, human CD71 on cells (SKBR3; …); test: cell-based or functional assay; remark: listed apart in the source
[7] = target: T4, human CD71 extracellular domain (CD71-ECD) (human, UniProt P02786 89-760); test: capture ELISA, 20 nM antigen on Neutravidin plate, FN3 titrated 250 to 0.3 nM
T4 construct: It was captured on a Neutravidin plate; also called hCD71; transferrin receptor 1 ECD
T4 sequence (P02786 89-760): as the sequence (P02786 89-760) above
Method: (§1) Select CD71-binding FN3 domains identified in Example 4 above were chosen to determine their binding to both human and cynomolgus monkey CD71 extracellular domain (CD71-ECD). Capture ELISA using CD71 binding to FN3 domains was performed, with the FN3 domains being titrated from 250 nM to 0.3 nM. 20 nM of antigen was incubated on a Neutravidin® plate for 1 hour at room temperature. The FN3 domains were incubated for 16 hours at room temperature.

[8] = target: T5, cynomolgus monkey CD71 extracellular domain (CD71-ECD) (cynomolgus monkey, UniProt H9EXL1 89-760 (rhesus entry)); test: as above
T5 construct: extracellular domain; It was captured on a Neutravidin plate; also called cynomolgus CD71-ECD
T5 sequence (chain, as listed by the source): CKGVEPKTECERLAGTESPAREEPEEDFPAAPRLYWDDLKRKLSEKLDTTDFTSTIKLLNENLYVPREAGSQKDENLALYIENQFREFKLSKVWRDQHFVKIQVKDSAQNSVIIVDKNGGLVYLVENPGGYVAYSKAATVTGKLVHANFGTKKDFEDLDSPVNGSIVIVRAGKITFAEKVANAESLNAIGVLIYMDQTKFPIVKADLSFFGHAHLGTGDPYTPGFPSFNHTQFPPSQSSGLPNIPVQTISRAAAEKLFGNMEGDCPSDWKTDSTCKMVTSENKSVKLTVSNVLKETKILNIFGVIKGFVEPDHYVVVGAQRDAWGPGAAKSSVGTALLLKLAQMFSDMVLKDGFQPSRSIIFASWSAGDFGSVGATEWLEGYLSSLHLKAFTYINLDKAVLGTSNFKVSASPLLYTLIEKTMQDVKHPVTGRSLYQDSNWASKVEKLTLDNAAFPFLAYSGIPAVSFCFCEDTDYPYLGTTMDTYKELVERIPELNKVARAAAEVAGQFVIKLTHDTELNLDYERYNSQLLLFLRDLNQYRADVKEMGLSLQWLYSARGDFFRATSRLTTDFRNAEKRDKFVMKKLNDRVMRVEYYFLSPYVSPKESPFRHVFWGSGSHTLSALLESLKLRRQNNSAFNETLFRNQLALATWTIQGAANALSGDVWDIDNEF
Method: as §1

T1 sequence (A0A2K5X958 entry or part of it): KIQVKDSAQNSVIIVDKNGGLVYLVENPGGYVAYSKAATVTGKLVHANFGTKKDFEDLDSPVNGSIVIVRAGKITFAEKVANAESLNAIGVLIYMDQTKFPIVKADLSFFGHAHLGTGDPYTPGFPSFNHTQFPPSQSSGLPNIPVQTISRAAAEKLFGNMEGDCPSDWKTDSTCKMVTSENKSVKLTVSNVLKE

Row | Binder | CTG EC50 (CellTiter-Glo luminescent assay, SKBR3 cells, 72 h) [5] [nM] | CTG EC50 (CellTiter-Glo luminescent assay, SKBR3 cells, 72 h) [6] [nM] | EC50 [7] [nM] | EC50 [8] [nM] | also measured
1 | CD71-binding FN3 domain of SEQ ID NO: 229 (designed binder) MSLPAPKNLVVSRVTEDSARLSWTAPDAAFDSFSIMYAEQKVNGEAIVLTVPGSERSYDLTGLKPGTEYLVLIWGVKGGGRSLPLSAIFTT |  |  |  |  | Cyno apical domain:HSA [1]: 119; hCD71:HSA [2]: 90; RLU [3]: 4.52e+06 RLU; RLU [4]: 3.42e+06 RLU
2 | CD71-binding FN3 domain of SEQ ID NO: 227 (designed binder) MSLPAPKNLVVSRVTEDSARLSWTAPDAAFDSFEIAYAELSTGEAIVLTVPGSERSYDLTGLKPGTEYYVHIGGVKGGSWSIPLSAIFTT |  |  |  |  | Cyno apical domain:HSA [1]: 49; hCD71:HSA [2]: 30; RLU [3]: 4.23e+06 RLU; RLU [4]: 2.62e+06 RLU
3 | CD71-binding FN3 domain of SEQ ID NO: 234 (designed binder) MSLPAPKNLVVSRVTEDSARLSWTAPDAAFDSFFIGYLEPQPPGEAIALYVPGSERSYDLTGLKPGTEYNVTIQGVKGGFPSEPLVAHFTT | 0.07 |  |  |  | 
4 | CD71-binding FN3 domain of SEQ ID NO: 290 (designed binder) MSLPAPKNLVVSRVTEDSARLSWTAPDAAFDSFFIGYLEPQPPGEAIHLYVPGSERSYDLTGLKPGTEYNVTIQGVKGGFPSEPLVATFTT | 0.01 |  |  |  | 
5 | CD71-binding FN3 domain of SEQ ID NO: 341 (designed binder) MSLPAPKNLVVSRVTEDSARLSWTAPDAAFDSFFIGYLEPQPPGEAIELYVPGSERSYDLTGLKPGTEYNVTIQGVKGGFPSLPLVAIFTT | 0.11 |  |  |  | 
6 | CD71-binding FN3 domain of SEQ ID NO: 343 (designed binder) MSLPAPKNLVVSRVTEDSARLSWTAPDAAFDSFFIGYLEPQPPGEAIALWVPGSERSYDLTGLKPGTEYNVTIQGVKGGFPSEPLVATFTT | 0.21 |  |  |  | 
7 | CD71-binding FN3 domain of SEQ ID NO: 972 (designed binder) MSLPAPKNLVVSRVTEDSARLSWTAPDAAFDSFFIGYLEPQPPGEAIALYVPGSERSYDLTGLKPGTEYNVTIQGAKGGFPSEPLVVHFTT | 0.04 |  |  |  | 
8 | CD71-binding FN3 domain of SEQ ID NO: 974 (designed binder) MSLPAPKNLVVSRVTEDSARLSWTAPDAAFDSFFIGYLEPQPPGEAIALYVPGSERSYDLTGLKPGTEYNVTIQGVKGGFPSLPLVATFTT | 0.15 |  |  |  | 
9 | CD71-binding FN3 domain of SEQ ID NO: 270 (designed binder) MSLPAPKNLVVSRVTEDSARLSWTAPDAAFDSFFIGYLEPQPPGEAIHLYVPGSERSYDLTGLKPGTEYNVTIQGVKGGFPSEPLIANSTT | 0.57 |  |  |  | 
10 | CD71-binding FN3 domain of SEQ ID NO: 333 (designed binder) MSLPAPENLVVSRVTEDSARLSWTAPDAAFDSFFIGYLEPQPPGEAIALYVPGSERSYDLTGLKPGTEYNVTIQGVKGGFPSLPLVATFTT | 0.57 |  |  |  | 
11 | CD71-binding FN3 domain of SEQ ID NO: 335 (designed binder) MSLPAPKNLVVSRVTEDSARLSWTAPDAAFDSFFIGYLEPQPPGEAIDLYVPGSERSYDLTGLKPGTEYNVTIQGVKGGFPSLPLVATFTT | 0.04 |  |  |  | 
12 | CD71-binding FN3 domain of SEQ ID NO: 281 (designed binder) MSLPAPKNLVVSRVTEDSARLSWTAPDAAFDSFFIGYLEPQPPGEAIALYVPGSERSYDLTGLKPGTEYNVTIQGVKGGFPSEPLIANFTT | 0.06 |  |  |  | 
13 | CD71-binding FN3 domain of SEQ ID NO: 973 (designed binder) MSLPAPKNLVVSRVTEDSARLSWTAPDAAFDSFFIGYLEPQPPGEAIHLYVPGSERSYDLTGLKPGTEYNGTIQGVKVGFPSEPLIANFTT | 0.07 |  |  |  | 
14 | CD71-binding FN3 domain of SEQ ID NO: 331 (designed binder) MSLPAPKNLVVSRVTEDSARLSWTAPDAAFDSFFIGYLEPQPPGEAIHLYVPGSERSYDLTGLKPGTEYNVTIQGVKVGFPSEPLIANFTT | 0.05 |  |  |  | 
15 | CD71-binding FN3 domain of SEQ ID NO: 264 (designed binder) MSLPAPKNLVVSRVTEDSARLSWTAPDAAFDSFFIGYLEPQPPGEAIALYVPGSERSYDLTGLKPGTEYNVTIQGVKGGFPSEPLVVHFTT | 0.16 |  |  |  | 
16 | CD71-binding FN3 domain of SEQ ID NO: 472 (designed binder, Tencon-based FN3 domain) MLPAPKNLVVSRVTEDSARLSWTAPDAAFDSFFIGYLEPQPPGEAIELYVPGSERSYDLTGLKPGTEYNVTIQGVKGGFPSLPLVATFTT |  | 0.3 | 0.4 | 0.7 | 
17 | CD71-binding FN3 domain of SEQ ID NO: 478 (designed binder, Tencon-based FN3 domain) MLPAPKNLVVSRVTEDSARLSWTAPDAAFDSFFIGYLEPQPPGEAIHLYVPGSERSYDLTGLKPGTEYNVTIQGVKGGFPSVPLIAKFTT |  | 0.6 | 0.4 | 0.6 | 
18 | CD71-binding FN3 domain of SEQ ID NO: 473 (designed binder, Tencon-based FN3 domain) MLPAPKNLVVSRVTEDSARLSWTAPDAAFDSFFIGYLEPQPPGEAIDLWVPGSERSYDLTGLKPGTEYNVTIQGVKGGFPSLPLSASFTT |  | 12.6 | 4.3 | 34.9 | 
19 | CD71-binding FN3 domain of SEQ ID NO: 496 (designed binder, Tencon-based FN3 domain) MLPAPKNLVVSRVTEDSARLSWTAPDAAFDSFFIGYLEPQPPGEAIILWVPGSERSYDLTGLKPGTEYNVTIQGVKGGFPSVPLIAQFTT |  | 3 | 3.9 | 10.6 | 
20 | CD71-binding FN3 domain of SEQ ID NO: 400 (designed binder, Tencon-based FN3 domain) MLPAPKNLVVSRVTEDSARLSWTAPDAAFDSFFIGYLEPQPPGEAIHLFVPGSERSYDLTGLKPGTEYNVTIQGVKGGFPSGPLHATFTT |  | 2.9 | 2.8 | 4.3 | 
21 | CD71-binding FN3 domain of SEQ ID NO: 483 (designed binder, Tencon-based FN3 domain) MLPAPKNLVVSRVTEDSARLSWTAPDAAFDSFFIGYLEPQPPGEAITLVVPGSERSYDLTGLKPGTEYNVTIQGVKGGFPSDPLVASFTT |  | 9.8 | 14.1 | 23 | 
22 | CD71-binding FN3 domain of SEQ ID NO: 373 (designed binder, Tencon-based FN3 domain) MLPAPKNLVVSRVTEDSARLSWTAPDAAFDSFFIGYLEPQPPGEAISLFVPGSERSYDLTGLKPGTEYNVTIQGVKGGFPSDPLVASFTT |  | 0.4 | 0.91 | 1.6 | 
23 | CD71-binding FN3 domain of SEQ ID NO: 465 (designed binder, Tencon-based FN3 domain) MLPAPKNLVVSRVTEDSARLSWTAPDAAFDSFFIGYLEPQPPGEAIDLYVPGSERSYDLTGLKPGTEYNVTIQGVKGGFPSEPLWADFTT |  | 1.2 | 2.5 | 24.9 | 
24 | CD71-binding FN3 domain of SEQ ID NO: 476 (designed binder, Tencon-based FN3 domain) MLPAPKNLVVSRVTEDSARLSWTAPDAAFDSFFIGYLEPQPPGEAIHLQVPGSERSYDLTGLKPGTEYNVTIQGVKGGFPSIPLIAVFTT |  | 2.7 | 2.1 | 17.7 | 
25 | CD71-binding FN3 domain of SEQ ID NO: 447 (designed binder, Tencon-based FN3 domain) MLPAPKNLVVSRVTEDSARLSWTAPDAAFDSFFIGYLEPQPPGEAIYLYVPGSERSYDLTGLKPGTEYNVTIQGVKGGFPSYPLTAQFTT |  | 71.5 | 3.2 | 5 | 
26 | CD71-binding FN3 domain of SEQ ID NO: 508 (designed binder, Tencon-based FN3 domain) MLPAPKNLVVSRVTEDSARLSWTAPDAAFDSFFIGYLEPQPPGEAITLSVPGSERSYDLTGLKPGTEYNVTIQGVKGGFPSEPLIAIFTT |  | 1.5 | 5.5 | 14.2 | 
27 | CD71-binding FN3 domain of SEQ ID NO: 540 (designed binder, Tencon-based FN3 domain) MLPAPKNLVVSRVTEDSARLSWTAPDAAFDSFYIAYAEPRPDGEAIILVVPGSERSYDLTGLKPGTEYSVLIHGVKGGLLSSPLDAGFTT |  | 14.4 | 10 |  | 
